Data on one molecule can be found in PMC6195791, “C9orf72, a protein associated with amyotrophic lateral sclerosis (ALS) is a guanine nucleotide exchange factor” (PeerJ, 2018).

As a reminder, the stoichiometry N is a count of units in the complex or per binding partner.

Test in all cases: SEC; 3x molar excess of Rab mixed with C9orf72, overnight on ice with 20 mM EDTA; gel filtration in 20 mM Tris pH 8.0, 300 mM NaCl, 2 mM DTT, 20 mM EDTA (Superdex75 in the methods, Superdex 200 10/30 in the legend); 21 uM C9orf72 and 48 uM Rab per run; fractions checked by SDS-PAGE and western blot
Background: Size exclusion chromatography separates by hydrodynamic size, large species first.

For one series, the target named is T1, Rab5A (UniProt P20339 1-215).
T1 construct: Rab5A, amplified from its cDNA clone and put into pGEX-6p-1 (BamHI/XhoI); about 25 kDa after tag cleavage; source: E. coli BL21CodonPlus(DE3)RIPL, purified (GST Sepharose 4B, PreScission cleavage, second GST Sepharose pass); not shown: GST, N-terminal, cleaved
T1 sequence (looked up): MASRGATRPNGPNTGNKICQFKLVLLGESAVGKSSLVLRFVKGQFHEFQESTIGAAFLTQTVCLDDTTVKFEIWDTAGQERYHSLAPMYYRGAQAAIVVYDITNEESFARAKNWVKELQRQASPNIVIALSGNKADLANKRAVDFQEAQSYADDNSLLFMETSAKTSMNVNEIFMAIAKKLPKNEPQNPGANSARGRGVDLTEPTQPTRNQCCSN
Conditions: both partners purified.

Series [1] deals with the molecule itself.
The next series concerns the target T2, Rab11A (UniProt P62491 1-216).
T2 construct: Rab11A, amplified from its cDNA clone and put into pGEX-6p-1 (BamHI/XhoI); about 25 kDa after tag cleavage; source: E. coli BL21CodonPlus(DE3)RIPL, purified (GST Sepharose 4B, PreScission cleavage, second GST Sepharose pass); not shown: GST, N-terminal, cleaved
T2 sequence (looked up): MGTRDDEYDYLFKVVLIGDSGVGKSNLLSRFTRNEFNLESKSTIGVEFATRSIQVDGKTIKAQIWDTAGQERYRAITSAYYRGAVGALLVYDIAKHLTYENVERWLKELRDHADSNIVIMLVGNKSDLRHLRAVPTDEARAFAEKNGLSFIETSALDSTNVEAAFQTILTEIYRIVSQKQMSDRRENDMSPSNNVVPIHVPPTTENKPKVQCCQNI
Conditions: both partners purified.

B1: C9orf72 (N-terminal His6, pOPINF-C9orf72) (natural protein, human, UniProt Q96LT7 1-481, looked up)
chain: MSTLCPPPSPAVAKTEIALSGKSPLLAATFAYWDNILGPRVRHIWAPKTEQVLLSDGEITFLANHTLNGEILRNAESGAIDVKFFVLSEKGVIIVSLIFDGNWNGDRSTYGLSIILPQTELSFYLPLHRVCVDRLTHIIRKGRIWMHKERQENVQKIILEGTERMEDQGQSIIPMLTGEVIPVMELLSSMKSHSVPEEIDIADTVLNDDDIGDSCHEGFLLNAISSHLQTCGCSVVVGSSAEKVNKIVRTLCLFLTPAERKCSRLCEAESSFKYESGLFVQGLLKDSTGSFVLPFRQVMYAPYPTTHIDVDVNTVKQMPPCHEHIYNQRRYMRSELTAFWRATSEEDMAQDTIIYTDESFTPDLNIFQDVLHRDTLVKAFLDQVFQLKPGLSLRSTFLAQFLLVLHRKALTLIKYIEDDTQKGKKPFKSLRNLKIDLDLTAEGDLNIIMALAEKIKPGLHSFIFGRPFYTSVQERDVLMTF
notes: the homology model counts residues up to 481; No tag cleavage is described; also called His6-C9orf72; recombinant C9orf72; source: Sf9, baculovirus, purified (HisTrap HP, Superdex200 size-exclusion chromatography); not shown: His6, N-terminal, kept
On to B1, for which the “stoichiometry N” value in the series with Rab5A and in the series with Rab11A was 1 in each case. In addition, the binding result in series [1] is “binds”.
